Measurements published in the supplement of paper PMC10567573.

B1: ZNF263 (parent)
chain: FGGNPRFLSLHRAHLGEEAHKCLE

Variants of: B1
Assay: protein stability index of a GFP-peptide fusion (GPS, HEK-293T) (PSI 1-6); higher = more stable
Conditions: c terminus: a fixed tail appended
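Also: lentivirally expressed fusions sorted by FACS into six bins by GFP to DsRed ratio, PSI derived from sequencing read proportions per bin multiplied by bin number.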

Protein stability index of substitutions, site by site:
A13: C 1.71, F 2.52, D 1.81, K 1.94, P 1.56, R 2.08, I 1.35, G 1.99, L 1.43, S 1.71, H 2.26, M 2.21, V 1.79, N 2.04, Q 1.48, W 1.81, Y 1.72, T 1.98, E 1.66
G16: Q 2.76, K 1.62, F 1.9, C 1.83, V 2.42, S 2.06, D 1.63, P 2.12, E 2.51, I 2.06, W 1.87, A 2.1, N 1.92, T 1.94, M 2.19, R 1.64, H 1.7, L 2.55
E18: K 1.39, Q 1.87, H 1.47, C 2.12, M 1.75, I 2.34, Y 1.88, R 1.62, W 2.03, S 2.34, P 2.05, T 1.46, L 2.33, G 1.61, N 1.07, A 1.77, D 1.87, V 2.43, F 1.85
R12: M 2.36, D 1.85, Y 1.24, L 1.56, A 2.08, C 1.87, N 2.49, F 2.35, K 1.61, W 1.58, G 1.81, E 1.76, T 1.95, I 1.84, H 1.71, P 1.46, Q 2.22, S 2.17, V 3.14
L10: W 3.91, V 2.66, T 1.99, Y 2.33, S 1.62
A19: F 1.44, G 1.58, Q 1.9, C 2.48, N 1.66, I 2.36, K 1.49, S 2.48, M 2.18, P 2.08, E 2.14, L 1.39, R 1.59, D 1.99, H 1.75
H14: T 3.21, G 1.95, I 3.64, F 2.55, Q 2.6, L 1.46, N 1.49, S 1.35, K 1.81, E 1.15, M 1.69, R 1.24, D 2.56, Y 1.86, A 1.74, P 1.59, V 1.96, W 2.42, C 1.95
L15: Q 1.86, D 2.46, F 1.27, E 1.7, C 3.76, H 2.33, G 1.89, W 2.28, Y 2.58, R 2.05, T 1.55, V 1.34, K 2.06, S 1.73, P 1.94, A 1.83, M 1.62, I 1.54, N 1.7
E17: M 2.82, Q 1.85, T 1.73, R 1.78, N 1.97, C 2.37, A 1.42, P 1.41, H 1.82, S 2.07, I 1.19, K 2.5, L 1.25, G 1.3, D 1.36, F 2.94, W 2.12, Y 1.56
H11: T 3.17, Q 1.6, Y 3.3, C 2.23, A 1.41, I 1.87, V 2.55, K 1.91, R 1.91, D 2.22, E 2.01, N 1.8, G 2.71, S 3.19, F 2.41, P 1.75
